Results: US20200247894A1 (Regeneron, published 2020)

T1: Human IL2Rγ extracellular domain expressed with a C-terminal myc-myc-hexahistidine tag (human)
T1 construct: also called hIL-2Rg-MMH; hIL-2RG-MMH
T1 chain: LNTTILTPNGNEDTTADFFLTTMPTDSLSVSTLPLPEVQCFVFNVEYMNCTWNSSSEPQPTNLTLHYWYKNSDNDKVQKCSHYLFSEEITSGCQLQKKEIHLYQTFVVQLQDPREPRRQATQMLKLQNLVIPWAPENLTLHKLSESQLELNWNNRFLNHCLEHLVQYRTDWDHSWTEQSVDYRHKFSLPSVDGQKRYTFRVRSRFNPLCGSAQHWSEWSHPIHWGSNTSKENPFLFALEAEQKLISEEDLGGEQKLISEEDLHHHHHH

T2: Macaca fascicularis IL2Rγ extracellular domain expressed with a C-terminal myc-myc-hexahistidine tag (Macaca fascicularis)
T2 construct: also called mfIL-2Rg-MMH; mfIL-2RG-MMH
T2 chain: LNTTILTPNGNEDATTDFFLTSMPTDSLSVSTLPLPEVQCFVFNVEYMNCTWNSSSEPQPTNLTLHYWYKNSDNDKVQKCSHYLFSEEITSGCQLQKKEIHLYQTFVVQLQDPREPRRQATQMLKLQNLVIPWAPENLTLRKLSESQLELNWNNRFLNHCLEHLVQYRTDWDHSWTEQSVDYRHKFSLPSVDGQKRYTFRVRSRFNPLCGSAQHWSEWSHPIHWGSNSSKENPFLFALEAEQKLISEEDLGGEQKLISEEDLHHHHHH

T3: Macaca fascicularis IL2Rγ extracellular domain expressed with a C-terminal myc-myc-hexahistidine tag (Macaca fascicularis)
T3 construct: also called mfIL-2Rg-MMH; mfIL-2RG-MMH
T3 chain: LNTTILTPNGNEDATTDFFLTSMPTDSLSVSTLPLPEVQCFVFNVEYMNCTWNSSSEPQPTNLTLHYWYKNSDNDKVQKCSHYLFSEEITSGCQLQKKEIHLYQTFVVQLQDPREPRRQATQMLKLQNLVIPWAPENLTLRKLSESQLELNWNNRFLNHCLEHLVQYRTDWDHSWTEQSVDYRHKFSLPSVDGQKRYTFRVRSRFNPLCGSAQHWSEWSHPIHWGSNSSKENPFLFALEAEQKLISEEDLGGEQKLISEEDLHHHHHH

T4: Human IL2Rγ extracellular domain expressed with a C-terminal myc-myc-hexahistidine tag (human)
T4 construct: also called hIL-2Rg-MMH; hIL-2RG-MMH
T4 chain: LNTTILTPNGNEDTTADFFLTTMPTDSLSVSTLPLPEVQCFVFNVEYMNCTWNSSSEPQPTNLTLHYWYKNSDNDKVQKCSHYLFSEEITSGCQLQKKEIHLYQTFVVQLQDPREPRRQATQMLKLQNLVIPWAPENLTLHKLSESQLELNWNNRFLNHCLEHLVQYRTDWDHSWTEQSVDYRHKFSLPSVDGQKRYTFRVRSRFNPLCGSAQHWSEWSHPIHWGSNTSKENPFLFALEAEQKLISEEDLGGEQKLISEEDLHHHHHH


Columns and labels:
[1] = target: T1, Human IL2Rγ extracellular domain …; experiment: SPR, captured mAb, 37C, dissociation pH 7.4
Description: (§1) The dissociation rate constant (kd) for binding of IL-2Rγ reagents to purified anti-IL2Rγ monoclonal antibodies was determined using a real-time surface plasmon resonance based Biacore 4000 biosensor platform. […] The CM5 Biacore sensor surface derivatized by amine coupling with monoclonal mouse anti-human Fc antibody (GE, Catalog # BR-1008-39) was used to capture anti-IL2Rγ monoclonal antibodies expressed with human IgG4 Fc. All the IL2Rγ reagents were expressed with a C-terminal myc-myc-hexahistidine tag (subsequently referred to with a -MMH suffix). […] The dissociation of bound IL-2Rg-MMH was performed in PBS-T-pH7.4 or PBS-T-pH6.0 running buffers for 6 minutes.
(§2) Dissociation rate constants (kd) in two running buffers were determined by fitting the real-time binding sensorgrams to a 1:1 binding model using Scrubber 2.0c curve-fitting software. Values of dissociation rate for […] mAb binding to hIL-2RG-MMH and mfIL-2RG-MMH at 25° C. and 37° C. in PBS-T-pH7.4 and PBS-T-pH6.0 is shown in Table 2-1 through Table 2-8.

[2] = target: T1, Human IL2Rγ extracellular domain …; experiment: SPR, captured mAb, 25C, dissociation pH 6.0
Description: as §1, §2

[3] = target: T2, Macaca fascicularis IL2Rγ extracellular …; experiment: SPR, captured mAb, 25C, dissociation pH 6.0
Description: as §1, §2

[4] = target: T1, Human IL2Rγ extracellular domain …; experiment: SPR, captured mAb, 37C, dissociation pH 6.0
Description: as §1, §2

[5] = target: T1, Human IL2Rγ extracellular domain …; experiment: SPR, captured mAb, 25C, dissociation pH 7.4
Description: as §1, §2

[6] = target: T2, Macaca fascicularis IL2Rγ extracellular …; experiment: SPR, captured mAb, 25C, dissociation pH 7.4
Description: as §1, §2

[7] = target: T3, Macaca fascicularis IL2Rγ extracellular …; experiment: SPR Biacore 4000, mAb captured by anti-hFc, 37C, dissociation in PBS-T pH 7.4
Description: as §1, §2

[8] = target: T4, Human IL2Rγ extracellular domain …; experiment: SPR Biacore 4000, mAb captured by anti-hFc, HBS-ET, 37C
Description: (§3) Equilibrium dissociation constants (KD values) for IL-2Rγ binding to purified anti-IL2Rγ monoclonal antibodies were determined using a Biacore 4000 instrument equipped with a real-time surface plasmon resonance biosensor. All binding studies were performed in 10 mM HEPES, 150 mM NaCl, 3 mM EDTA, and 0.05% v/v Surfactant Tween-20, pH 7.4 (HBS-ET) running buffer at 25° C. and 37° C. The Biacore sensor surface was first derivatized by amine coupling with a monoclonal mouse anti-human Fc antibody (GE, # BR-1008-39) to capture anti-IL2Rγ monoclonal antibodies.
(§4) The dissociation of monoclonal antibody bound IL2Rγ reagents were monitored for 8-10 minutes in HBS-ET running buffer. Kinetic association (kₐ) and dissociation (kd) rate constants were determined by fitting the real-time sensorgrams to a 1:1 binding model using Scrubber 2.0c curve fitting software. Binding dissociation equilibrium constants (KD) and dissociative half-lives (t_{1/2}) were calculated from the kinetic rate constants as: […]

[9] = target: T3, Macaca fascicularis IL2Rγ extracellular …; experiment: SPR Biacore 4000, mAb captured by anti-hFc, 37C, dissociation in PBS-T pH 6.0
Description: as §1, §2

[10] = target: T4, Human IL2Rγ extracellular domain …; experiment: SPR Biacore 4000, mAb captured by anti-hFc, HBS-ET, 25C
Description: as §3, §4

[11] = target: T3, Macaca fascicularis IL2Rγ extracellular …; experiment: as above
Description: as §3, §4

100 nM Ag Bound (RU) [1] [RU]	koff [1] [s⁻¹]	t1/2 [1] [min]	100 nM Ag Bound (RU) [2] [RU]	koff [2] [s⁻¹]	t1/2 [2] [min]	100 nM Ag Bound (RU) [3] [RU]	koff [3] [s⁻¹]	t1/2 [3] [min]	100 nM Ag Bound (RU) [4] [RU]	koff [4] [s⁻¹]	t1/2 [4] [min]	100 nM Ag Bound (RU) [5] [RU]	koff [5] [s⁻¹]	t1/2 [5] [min]	100 nM Ag Bound (RU) [6] [RU]	koff [6] [s⁻¹]	t1/2 [6] [min]	100 nM Ag Bound (RU) [7] [RU]	koff [7] [s⁻¹]	Binder	also measured
14	0.0308	0.4	24	0.0297	0.4	32	0.0185	0.6	14	0.0312	0.4	29	0.0133	0.9	43	0.00782	1.5			H4H12926P2 (antibody, human IgG4 S228P, kappa, V domains shown, anti-IL2Rgamma mAb expressed with human IgG4 Fc) VH: QVQLQQSGPGLVKPSQTLSLTCAISGDSVSSNIAAWNWIRLSPSRGLEWLGRTFFRSTWFYDYSLSVKGRITINPDTSKNQFSLHLNSVTPEDAAVYYCARTGRRWSLDYWGQGTLVTVSS VL: not shown	
133	0.00302	4	136	0.00367	3	131	0.00305	4	133	0.0143	0.8	124	0.000479	24	130	0.000385	30			H4H12924P2 (antibody, human IgG4 S228P, kappa, V domains shown, anti-IL2Rgamma mAb expressed with human IgG4 Fc) VH: EVQLVESGGGLVQPGRSLRLSCAASGFTLEDYAMHWVRQAPGKGLEWVSGISWNRGSTGYADSVKGRFTISRDNAKNSLYLQMTSLRAEDTALYYCAKGFYSMDVWGQGTTVTVSS VL: not shown	
																		133	0.00267	H4H12924P2 (antibody, human IgG4 S228P, kappa, V domains shown, anti-IL2Rγ monoclonal antibody expressed with human IgG4 Fc) VH: EVQLVESGGGLVQPGRSLRLSCAASGFTLEDYAMHWVRQAPGKGLEWVSGISWNRGSTGYADSVKGRFTISRDNAKNSLYLQMTSLRAEDTALYYCAKGFYSMDVWGQGTTVTVSS VL: not shown	t1/2 [7]: 4 min; 100 nM Ag Bound [8]: 26 RU; Kd [8]: 18 nM; koff [8]: 0.0157 s⁻¹; kon [8]: 871000 M⁻¹ s⁻¹; t1/2 [8]: 0.7 min; 100 nM Ag Bound (RU) [9]: 126 RU; koff [9]: 0.0124 s⁻¹; t1/2 [9]: 0.9 min; 100 nM Ag Bound [10]: 78 RU; Kd [10]: 5.38 nM; koff [10]: 0.00174 s⁻¹; kon [10]: 322000 M⁻¹ s⁻¹; t1/2 [10]: 7 min; 100 nM Ag Bound [11]: 73 RU; Kd [11]: 6.58 nM; koff [11]: 0.00165 s⁻¹; kon [11]: 251000 M⁻¹ s⁻¹; t1/2 [11]: 7 min
																		119	0.00051	H4H13538P (antibody, human IgG4 S228P, kappa, V domains shown, anti-IL2Rγ monoclonal antibody expressed with human IgG4 Fc) VH: EVQLVESGGGLVQPGGSLGLSCAASGFTFSNYAMSWVRQAPGKGLEWVSAVSGGGGGTYYADSVKGRFTISRDNSKNTVLLQMNSLRAEDTAVYYCARGRTGGLDYWGPGTLVTVSS VL: DVVMTQSPLSLPVIFGQPASISCRSSQSLVDSDGNTYLNWLQQRPGQSPRRLIYEVSNRDSGVPDRFSGSGSGTDFTLTISRVEAEDVGIYYCMQGTRWPPTFGGGTKVEIKR	t1/2 [7]: 23 min; 100 nM Ag Bound [8]: 99 RU; Kd [8]: 3.4 nM; koff [8]: 0.00108 s⁻¹; kon [8]: 319000 M⁻¹ s⁻¹; t1/2 [8]: 11 min; 100 nM Ag Bound (RU) [9]: 122 RU; koff [9]: 0.00139 s⁻¹; t1/2 [9]: 8 min; 100 nM Ag Bound [10]: 68 RU; Kd [10]: 1.02 nM; koff [10]: 0.000227 s⁻¹; kon [10]: 222000 M⁻¹ s⁻¹; t1/2 [10]: 51 min; 100 nM Ag Bound [11]: 81 RU; Kd [11]: 2.28 nM; koff [11]: 0.000304 s⁻¹; kon [11]: 133000 M⁻¹ s⁻¹; t1/2 [11]: 38 min
